B1: CPEB3 Ribozyme (parent)
chain: UAACAGGGGGCCACAGCAGAAGCGUUCACGUCGCAGCCCCUGUCAGAUUCUGGUGAAUCUGCGAAUUCUGCUGUAUAUCUC

In the series the parent is B1. The series can be described thus: self-cleavage, relative activity (ratio to wild type); higher = more cleavage; in vitro, sequencing. The essentials:
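Libraries of CPEB3 self-cleaving ribozyme mutants came from rounds of error-prone PCR and carried barcodes, which DNA sequencing matched to variants. In vitro transcription used T7 RNA polymerase at 37°C for 5 hours, with a further 15 min in DNase I before EDTA stopped the reaction; the ribozymes cleaved during both steps. The RNA was reverse transcribed with template switching and sequenced on Illumina. Relative activity is the cleaved/total read fraction of a variant divided by that of the unmutated ribozyme, averaged over three batches with at least 5 reads.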
With UAACAGGGGGCCACAGCAGAAGCGUUCACGUCGCAGCCCGUGUCAGAUUCUGGUGAAUCCGCGAAUUCUGCUGUAUAUCUC, the self-cleavage is 0.16.

For UAACAGGGGGCCACAGCAGAAGCGUUCACGUCGCAGCCCAUGUCAGAUUCUGGUGAACCUGCGAAUUCUGCUGUAUAUCUC, the self-cleavage was 0.1.

Turning to UAACAGGGGGCCACAGCAGAAGCGUUCACGUCGCAGCCCGUGUCAGAUUCUGGCGAAUCUGCGAAUUCUGCUGUAUAUCUC, the self-cleavage stood at 0.2.

Consider UAACAGGGGGCCACAGCAGAAGCGUUCACGUCGCAGCCCGUGUCAGAUUCUGGGGAAUCUGCGAAUUCUGCUGUAUAUCUC, for which the self-cleavage was determined as 0.29.

As for UAACAGGGGGCCACAGCAGAAGCGUUCACGUCGCAGCCUCUGUCAGAUUCUGGUGAAUCUGCGAAUUCUGCUGUAUAACUC, the self-cleavage turned out to be 0.89.

For UAACAGGGGGCCACAGCAGAAGCGUUCACGUCGCAGCCCGUGUCAGAUUCUGGUGAAUCUGCGAAUUCUGCUGUAUGUCUC, the self-cleavage worked out at 0.08.

UAACAGGGGGCCACAGCAGAAGCGUUCACGUCGCAGCCUCUGUCAGAUUCUGGUGAAUCUGCGAAUUCUGCUGUAUAUCCC: the self-cleavage was determined as 0.8.

Turning to UAACAGGGGGCCACAGCAGAAGCGUUCACGUCGCAGCCCAUGUCAGAUUCUGGUGAAUCUGCGAAUUCUGCUGUAUAUCUG, the self-cleavage came out at 0.07.

As to UAACAGGGGGCCACAGCAGAAGCGUUCACGUCGCAGCCCAUGUCCGAUUCUGGUGAAUCUGCGAAUUCUGCUGUAUAUCUC, the self-cleavage stood at 0.23.

For the variant UAACAGGGGGCCACAGCAGAAGCGUUCACGUCGCAGCCCAUGUCUGAUUCUGGUGAAUCUGCGAAUUCUGCUGUAUAUCUC, the self-cleavage came out at 0.31.

On to UAACAGGGGGCCACAGCAGAAGCGUUCACGUCGCAGCCCAUGUCGGAUUCUGGUGAAUCUGCGAAUUCUGCUGUAUAUCUC, for which the self-cleavage was found to be 0.26.

Take UAACAGGGGGCCACAGCAGAAGCGUUCACGUCGCAGCCCAUUUCAGAUUCUGGUGAAUCUGCGAAUUCUGCUGUAUAUCUC: the self-cleavage came to 0.31.

Consider UAACAGGGGGCCACAGCAGAAGCGUUCACGUCGCAGCCCAUGUCAGAUUCUGGUGAGUCUGCGAAUUCUGCUGUAUAUCUC, for which the self-cleavage was found to be 0.22.

For UAACAGGGGGCCACAGCAGAAGCGUUCACGUCGCAGCCCGUGCCAGAUUCUGGUGAAUCUGCGAAUUCUGCUGUAUAUCUC, the self-cleavage came out at 0.16.

In the case of UAACAGGGGGCCACAGCAGAAGCGUUCACGUCGCAGCCCAUGUCAGAUUCUGGCGAAUCUGCGAAUUCUGCUGUAUAUCUC, the self-cleavage is 0.28.

Regarding UAACAGGGGGCCACAGCAGAAGCGUUCACGUCGCAGCCCAUGUCAGAUUCUGGAGAAUCUGCGAAUUCUGCUGUAUAUCUC, the self-cleavage turned out to be 0.29.

With UAACAGGGGGCCACAGCAGAAGCGUUCACGUCGCAGCCUCUGUCAGAUUCUGGUGAAUCUGCGAAUUCUGCUGAAUAUCUC, the self-cleavage amounted to 1.08.

In the case of UAACAGGGGGCCACAGCAGAAGCGUUCACGUCGCAGCCUCUGUCAGAUUCUGGUGAAUCUGCGAAUUCUGCUGCAUAUCUC, the self-cleavage turned out to be 1.1.

On to UAACAGGGGGCCACAGCAGAAGCGUUCACGUCGCAGCCCAUGUCAGAAUCUGGUGAAUCUGCGAAUUCUGCUGUAUAUCUC, for which the self-cleavage was found to be 0.15.

On to UAACAGGGGGCCACAGCAGAAGCGUUCACGUCGCAGCCCAUGUCAGACUCUGGUGAAUCUGCGAAUUCUGCUGUAUAUCUC, for which the self-cleavage came to 0.18.

Turning to UAACAGGGGGCCACAGCAGAAGCGUUCACGUCGCAGCCCAUGUCAGAUUCUGGUGAAUCGGCGAAUUCUGCUGUAUAUCUC, the self-cleavage came out at 0.2.

With UAACAGGGGGCCACAGCAGAAGCGUUCACGUCGCAGCCCAUGUCAGAUUCUGGUGAAUCCGCGAAUUCUGCUGUAUAUCUC, the self-cleavage amounted to 0.2.

On to UAACAGGGGGCCACAGCAGAAGCGUUCACGUCGCAGCCCAUGUCAGAUUCUGGUGAAUCUGCGAAUUCUGCGGUAUAUCUC, for which the self-cleavage is 0.41.

Regarding UAACAGGGGGCCACAGCAGAAGCGUUCACGUCGCAGCCCAUGUCAGAUUCUGGUGAAUCUGCGAAUUCUGCCGUAUAUCUC, the self-cleavage was 0.37.

UAACAGGGGGCCACAGCAGAAGCGUUCACGUCGCAGCCCAUGUCAGAUUCUGGUGAAUCUGCGAACUCUGCUGUAUAUCUC: the self-cleavage is 0.18.

Take UAACAGGGGGCCACAGCAGAAGCGUUCACGUCGCAGCCCAAGUCAGAUUCUGGUGAAUCUGCGAAUUCUGCUGUAUAUCUC: the self-cleavage was 0.1.

Regarding UAACAGGGGGCCACAGCAGAAGCGUUCACGUCGCAGCCCACGUCAGAUUCUGGUGAAUCUGCGAAUUCUGCUGUAUAUCUC, the self-cleavage was 0.36.

With UAACAGGGGGCCACAGCAGAAGCGUUCACGUCGCAGCCCAUGUCAGAUUCUGGUGAAUCUGCGAAUCCUGCUGUAUAUCUC, the self-cleavage came to 0.28.

On to UAACAGGGGGCCACAGCAGAAGCGUUCACGUCGCAGCCCAUGUCAGAUACUGGUGAAUCUGCGAAUUCUGCUGUAUAUCUC, for which the self-cleavage is 0.18.

On to UAACAGGGGGCCACAGCAGAAGCGUUCACGUCGCAGCCCAUGUCAGAUUCUGGUGUAUCUGCGAAUUCUGCUGUAUAUCUC, for which the self-cleavage was determined as 0.2.

Take UAACAGGGGGCCACAGCAGAAGCGUUCACGUCGCAGCCCAUGUCAGAUUCUGGUGGAUCUGCGAAUUCUGCUGUAUAUCUC: the self-cleavage worked out at 0.23.

For UAACAGGGGGCCACAGCAGAAGCGUUCACGUCGCAGCCCAUGUCAGAUUCUGGUGAAUCUGCGAAUUCUGCUGUAUACCUC, the self-cleavage was determined as 0.18.

Take UAACAGGGGGCCACAGCAGAAGCGUUCACGUCGCAGCCCAUGUCAGAUUCUGGUGAAUCUGCGAAUUCUGCUGUAUAACUC: the self-cleavage is 0.22.

UAACAGGGGGCCACAGCAGAAGCGUUCACGUCGCAGCCCGUGUCAGAUUCUGGUGAAUCUGCGAGUUCUGCUGUAUAUCUC: the self-cleavage came out at 0.35.

The values above are taken from the RNAGym collection of RNA variant scans (doi:10.1093/nar/gkz1192).
